Data on three molecules can be found in patent publication US5876950.

Test [1] deals with human gp39 (human) (UniProt P29965).
Test [2] shares this target. This is another data set of the same source.
The target is the same in test [3]. The source holds these as a separate data set.
The target in test [4] is gp39-CD8 fusion protein mutant Y145/A (murine; human). Briefly: ELISA on captured mutant gp39-CD8.
Test [5] has as its target gp39-CD8 fusion protein mutant N180/A (murine; human). Briefly: ELISA on captured mutant gp39-CD8.
The target of test [6] is gp39-CD8 fusion protein mutant K143/A (murine; human). Briefly: ELISA on captured mutant gp39-CD8. For orientation: An ELISA detects its analyte on a solid surface through an enzyme-linked reagent.
Test [7] addresses gp39-CD8 fusion protein mutant S131/A-T135/A (murine; human). Briefly: ELISA on captured mutant gp39-CD8.
Test [8] addresses gp39-CD8 fusion protein mutant F201/A-E202/A (murine; human). Nature of the test: ELISA on captured mutant gp39-CD8.
For test [9], the target named is gp39-CD8 fusion protein mutant E129/A (murine; human). Briefly: ELISA on captured mutant gp39-CD8.
In test [10] the target is human gp39 (human) (UniProt P29965). Nature of the test: saturation binding of iodinated protein to gp39+ BMS-10 Jurkat cells.
The target is the same in test [11]. Briefly: Scatchard transformation, BMS-10 Jurkat cells.
Test [12] shares this target. Nature of the test: saturation binding of radiolabeled protein to Jurkat cells constitutively expressing gp39.

Chain of human gp39 (human) (P29965 whole entry): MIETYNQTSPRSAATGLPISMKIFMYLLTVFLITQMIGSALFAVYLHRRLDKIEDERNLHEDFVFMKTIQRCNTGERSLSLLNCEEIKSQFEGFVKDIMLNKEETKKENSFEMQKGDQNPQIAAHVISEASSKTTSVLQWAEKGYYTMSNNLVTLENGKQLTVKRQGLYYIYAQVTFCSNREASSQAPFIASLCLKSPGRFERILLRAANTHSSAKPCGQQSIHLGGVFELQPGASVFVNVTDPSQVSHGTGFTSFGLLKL
Chain of gp39-CD8 fusion protein mutant Y145/A (murine; human) (P01731 other isoform, or with tags, fused parts or gaps mutant): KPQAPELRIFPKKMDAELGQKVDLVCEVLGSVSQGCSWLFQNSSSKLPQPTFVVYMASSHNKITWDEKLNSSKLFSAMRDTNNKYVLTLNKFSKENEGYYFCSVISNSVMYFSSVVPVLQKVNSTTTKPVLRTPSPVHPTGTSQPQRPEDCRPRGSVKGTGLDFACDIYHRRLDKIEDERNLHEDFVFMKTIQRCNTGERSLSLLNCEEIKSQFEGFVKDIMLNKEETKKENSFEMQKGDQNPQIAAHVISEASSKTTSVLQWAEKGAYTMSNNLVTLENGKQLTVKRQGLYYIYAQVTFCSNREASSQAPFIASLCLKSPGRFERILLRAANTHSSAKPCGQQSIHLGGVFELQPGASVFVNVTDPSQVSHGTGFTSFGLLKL
Chain of gp39-CD8 fusion protein mutant S131/A-T135/A (murine; human) (P01731 other isoform, or with tags, fused parts or gaps mutant): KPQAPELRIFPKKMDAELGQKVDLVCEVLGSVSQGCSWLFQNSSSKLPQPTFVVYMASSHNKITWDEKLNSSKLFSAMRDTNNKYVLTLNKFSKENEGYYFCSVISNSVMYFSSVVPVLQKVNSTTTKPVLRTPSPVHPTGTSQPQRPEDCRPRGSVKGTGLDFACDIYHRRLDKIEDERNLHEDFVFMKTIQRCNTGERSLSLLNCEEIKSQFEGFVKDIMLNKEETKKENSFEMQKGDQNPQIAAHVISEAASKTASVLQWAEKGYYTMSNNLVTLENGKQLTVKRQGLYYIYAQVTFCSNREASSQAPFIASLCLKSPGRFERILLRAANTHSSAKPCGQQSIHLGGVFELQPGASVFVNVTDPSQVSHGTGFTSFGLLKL
Chain of gp39-CD8 fusion protein mutant E129/A (murine; human) (P01731 other isoform, or with tags, fused parts or gaps mutant): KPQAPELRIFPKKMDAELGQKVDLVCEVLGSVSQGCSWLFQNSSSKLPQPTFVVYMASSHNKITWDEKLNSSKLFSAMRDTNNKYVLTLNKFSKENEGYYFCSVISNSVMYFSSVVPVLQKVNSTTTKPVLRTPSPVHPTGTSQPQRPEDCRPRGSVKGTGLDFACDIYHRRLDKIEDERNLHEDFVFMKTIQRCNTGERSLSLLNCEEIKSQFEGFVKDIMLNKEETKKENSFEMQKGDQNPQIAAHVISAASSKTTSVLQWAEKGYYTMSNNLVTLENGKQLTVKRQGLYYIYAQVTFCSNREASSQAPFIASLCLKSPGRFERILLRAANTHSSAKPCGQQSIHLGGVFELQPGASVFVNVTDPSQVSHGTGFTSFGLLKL
Chain of gp39-CD8 fusion protein mutant N180/A (murine; human) (P01731 other isoform, or with tags, fused parts or gaps mutant): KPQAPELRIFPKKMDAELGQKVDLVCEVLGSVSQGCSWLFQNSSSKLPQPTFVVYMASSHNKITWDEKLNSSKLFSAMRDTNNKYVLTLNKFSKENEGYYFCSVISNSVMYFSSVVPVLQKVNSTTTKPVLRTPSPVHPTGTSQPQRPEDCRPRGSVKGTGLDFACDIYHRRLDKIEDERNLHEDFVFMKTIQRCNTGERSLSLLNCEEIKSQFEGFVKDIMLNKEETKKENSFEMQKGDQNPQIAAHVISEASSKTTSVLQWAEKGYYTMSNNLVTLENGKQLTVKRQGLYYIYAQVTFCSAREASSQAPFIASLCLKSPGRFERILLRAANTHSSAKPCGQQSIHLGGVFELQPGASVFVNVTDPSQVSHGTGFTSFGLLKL

Turning to negative control monoclonal antibody, in the test with human gp39 (human) [1], the IgM produced, % of medium control (IgG in the next line) (% of medium control) was determined as 87.9 and the [3H]thymidine incorporation of B cells, % of medium control (% of medium control) amounted to 87.9.

B1: monoclonal antibody 39-1.7 (antibody, V domains shown)
VH: EVQLQQSGPELVKPGASVKMSCKASGYTFTDYYMKWVKQSHGKSLEWIGNINPNNGDTFFNQKFEGKATLTVDKSSSAAYMQLNSLTSEDSAVKKCARGPGTNYFDYWGQGTTLTVSS
VL: DIVLTQSPVSLAVSLGQRVTISCRASQSVSSSTNSYMHWYQQKPGQPPKLLIKYASNLESGVPARFSGSGSGTDFTLNIHPVEEEDTATYYCQHSWEIPFTFGSGTKLEIRR
In the test with human gp39 (human) [2], B1 had an IgG synthesis by B cells at 20 µg/ml purified mAb, % of medium control (% of medium control) of 17. The IgG synthesis at 7.53 x 10^12 binding sites/ml, % of medium only control (% of medium only control) with human gp39 (human) [3] turned out to be 12. The same molecule had an IgM produced, % of medium control (IgG in the next line) (% of medium control) in the test with human gp39 (human) [1] of 13.9. Moreover, the [3H]thymidine incorporation of B cells, % of medium control (% of medium control) with human gp39 (human) [1] is 3.3. Moreover, the binding relative to wild-type gp39 was determined as 106% in test [4]; 93% in test [5]; 5% in test [6]; 89% in test [7]; 112% in test [8]; 70% in test [9].

B2: monoclonal antibody 39-1.106 (antibody, V domains shown)
VH: EVKLVESGGGLVKPGGSLKLSCTTSGFTFNNYAMSWVRQTPEKRLEWVASISSGDSTYYPDSVRGRFTISRDNARNILYLQMSSLRSEDTAMYYCARHYDYDSYAMDYWGQGTSVTVSS
VL: DIQMTQSPASLSASVGETVTITCRASETIYSYLAWYQQKQGRSPQLLVYNAKTLAEGVPSRFSGSGSGTQFSLKINSLQPEDFGSYYCQHHYNTPLTFGTGTKLELKR
Regarding B2, the IgG synthesis by B cells at 20 µg/ml purified mAb, % of medium control (% of medium control) with human gp39 (human) [2] came out at 8. Also, in the test with human gp39 (human) [10], the Kd (as a rule, the free concentration of one partner at which half of the binding sites on the other are occupied at equilibrium, for simple one-to-one binding) was 0.4 nM. The same molecule gave an IgG synthesis at 7.53 x 10^12 binding sites/ml, % of medium only control (% of medium only control) with human gp39 (human) [3] of 11. This molecule displayed an IgM produced, % of medium control (IgG in the next line) (% of medium control) in the test with human gp39 (human) [1] of 17.9. The [3H]thymidine incorporation of B cells, % of medium control (% of medium control) with human gp39 (human) [1] amounted to 2.9. The same molecule yielded a sites per cell (sites per cell) in the test with human gp39 (human) [11] of 10000. The binding relative to wild-type gp39 came to 124% in test [4]; 144% in test [5]; 52% in test [6]; 113% in test [7]; 9% in test [8]; 130% in test [9]. The molecule further displayed a fold greater affinity than 106 sFv-Ig with human gp39 (human) [12] of 3 fold.
